Measured values taken from the RNAGym collection of RNA variant scans (doi:10.1093/molbev/msab373).

B1: Azoarcus group I ribozyme (parent)
chain: GUGCCUUGCGCCGGGAAACCACGCAAGGGAUGGUGUCAAAUUCGGCGAAACCUAAGCGCCCGCCCGGGCGUAUGGCAACGCCGAGCCAAGCUUCGGCGCCUGCGCCGAUGAAGGUGUAGAGACUAGACGGCACCCACCUAAGGCAAACGCUAUGGUGAAGGCAUAGUCCAGGGAGUGGCGAAAGUCACACAAACCGG

Variants of: B1
Test: reverse-splicing fitness (ratio to wild type); higher = more active; in vitro selection; Mg2+ level not given
Procedure, shortened: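 An in vitro group I ribozyme library with randomized positions was T7-transcribed and gel-purified. In triplicate, 10 pmol RNA in EPPS pH 7.5 was reacted with 50 pmoles of a 30-nt RNA substrate for 1 h at 37 °C across several added MgCl2 levels (1–48 mM), then stopped with EDTA. Products were reverse transcribed from a substrate-complementary primer, PCR-amplified and sequenced (HiSeq 4000). Fitness is a variant's read proportion after selection over that before, normalised to wild type.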

Variant | reverse-splicing fitness
C82U A111C U176C | 0.104
C82U A111C U176A | 0.0847
C82U A111C U176G | 0.02
C82U A111C A145C C169G U176A | 0.0274
C82U A111C A145C C169G U176G | 0.00669
C82U A111C A145C C169G U176C | 0.0207
C82U A111C C169G U176A | 0.0181
C82U A111C C169G U176C | 0.024
C82U A111C C169G U176G | 0.007
C82U A111G A120C A145C C150U C169U U176C | 0.00942
C82U A111G A120C A145C C150U C169U U176A | 0.0144
C82U A111G A120C A145C C150U C169U U176G | 0.00402
C82U A111C A145C C150U U176A | 0.0229
C82U A111C A145C C150U U176G | 0.00938
C82U A111C A145C C150U U176C | 0.0358
C82U A111C A145C C169U U176G | 0.00632
C82U A111C A145C C169U U176A | 0.0157
C82U A111C A145C C169U U176C | 0.0113
C82U A111C A145U C150A C169U | 0.0103
C82U A111C A145U C150A C169G | 0.00682
C82U A111C A145U C150A C169A | 0.00884

Variant | reverse-splicing fitness
C82U A111C A145G C150G U176A | 0.0105
C82U A111C A145G C150G U176C | 0.0166
C82U A111C A145G C150G U176G | 0.00671
C82U A111C A145U C150G U176C | 0.0156
C82U A111C A145U C150G U176G | 0.00446
C82U A111C A145U C150G U176A | 0.0108
C82U A111G A120C A145G C150A C169G U176C | 0.0213
C82U A111G A120C A145G C150A C169G U176G | 0.00547
C82U A111G A120C A145G C150A C169G U176A | 0.0237
C82U A111C C150A C169G U176G | 0.00835
C82U A111C C150A C169G U176A | 0.0162
C82U A111C C150A C169G U176C | 0.0236
C82U A111G A120C A145C C150A C169G | 0.00759
C82U A111G A120C A145C C150A C169U | 0.00924
C82U A111G A120C A145C C150A C169A | 0.00689
C82U A111C C150G C169A U176A | 0.00878
C82U A111C C150G C169A U176G | 0.00672
C82U A111C C150G C169A U176C | 0.00957
C82U A111C A145U C150G | 0.0215
C82U A111C A145U C150U | 0.148
C82U A111C A145U C150A | 0.0231

Variant | reverse-splicing fitness
C82U A111G A120C A145C C150A C169A U176G | 0.00444
C82U A111G A120C A145C C150A C169A U176A | 0.0104
C82U A111G A120C A145C C150A C169A U176C | 0.00523
C82U A111G A120C A145G C169G U176G | 0.00407
C82U A111G A120C A145G C169G U176A | 0.0181
C82U A111G A120C A145G C169G U176C | 0.0179
C82U A111C A145U U176A | 0.0808
C82U A111C A145U U176C | 0.103
C82U A111C A145U U176G | 0.0238
C82U A111C A145G C169G U176G | 0.00682
C82U A111C A145G C169G U176C | 0.0306
C82U A111C A145G C169G U176A | 0.0236
C82U A111G A120C A145C C150G C169U U176C | 0.0112
C82U A111G A120C A145C C150G C169U U176A | 0.00787
C82U A111G A120C A145C C150G C169U U176G | 0.00424
C82U A111G A120C A145G C169A U176A | 0.0153
C82U A111G A120C A145G C169A U176C | 0.0205
C82U A111G A120C A145G C169A U176G | 0.00336
C82U A111C A145U C169U | 0.0114
C82U A111C A145U C169A | 0.00715
C82U A111C A145U C169G | 0.0103

Variant | reverse-splicing fitness
C82U A111G A120C A145C C150A C169U U176G | 0.00393
C82U A111G A120C A145C C150A C169U U176C | 0.0104
C82U A111G A120C A145C C150A C169U U176A | 0.0146
C82U A111C C169U U176A | 0.0179
C82U A111C C169U U176C | 0.0146
C82U A111C C169U U176G | 0.00681
C82U A111C A145U C150U C169A U176A | 0.0126
C82U A111C A145U C150U C169A U176C | 0.011
C82U A111C A145U C150U C169A U176G | 0.00765
C82U A111C C150U U176A | 0.0385
C82U A111C C150U U176G | 0.0125
C82U A111C C150U U176C | 0.0667
C82U A111G A120C A145G C150A C169A U176G | 0.00589
C82U A111G A120C A145G C150A C169A U176A | 0.0157
C82U A111G A120C A145G C150A C169A U176C | 0.018
C82U A111G A120C A145G C150G C169G | 0.00678
C82U A111G A120C A145G C150G C169A | 0.00845
C82U A111G A120C A145G C150G C169U | 0.00846
C82U A111C A145C C169G | 0.00983
C82U A111C A145C C169A | 0.00714
